{"source": "patent US20060057623", "biological_target": "HDAC1 (histone deacetylase 1), wild-type, Q13547", "sequence (Q13547 whole entry)": "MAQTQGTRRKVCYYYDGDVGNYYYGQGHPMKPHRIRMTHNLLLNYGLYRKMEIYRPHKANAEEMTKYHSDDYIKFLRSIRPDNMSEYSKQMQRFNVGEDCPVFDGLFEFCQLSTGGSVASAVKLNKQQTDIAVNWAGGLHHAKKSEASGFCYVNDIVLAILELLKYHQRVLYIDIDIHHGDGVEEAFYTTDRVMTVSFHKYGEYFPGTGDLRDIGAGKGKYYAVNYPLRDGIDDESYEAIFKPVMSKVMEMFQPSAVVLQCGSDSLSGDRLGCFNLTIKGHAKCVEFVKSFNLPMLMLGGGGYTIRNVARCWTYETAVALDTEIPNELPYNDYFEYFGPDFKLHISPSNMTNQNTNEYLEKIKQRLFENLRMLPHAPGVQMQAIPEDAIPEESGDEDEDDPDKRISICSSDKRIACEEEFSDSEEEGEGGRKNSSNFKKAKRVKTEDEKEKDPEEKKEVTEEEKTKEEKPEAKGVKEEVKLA", "data": [{"protein": "SENP1 (Sentrin/SUMO-specific protease 1), wild-type (protein) MDDIADRMRMDAGEVTLVNHNSVFKTHLLPQTGFPEDQLSLSDQQILSSRQGHLDRSFTCSTRSAAYNPSYYSDNPSSDSFLGSGDLRTFGQSANGQWRNSTPSSSSSLQKSRNSRSLYLETRKTSSGLSNSFAGKSNHHCHVSAYEKSFPIKPVPSPSWSGSCRRSLLSPKKTQRRHVSTAEETVQEEEREIYRQLLQMVTGKQFTIAKPTTHFPLHLSRCLSSSKNTLKDSLFKNGNSCASQIIGSDTSSSGSASILTNQEQLSHSVYSLSSYTPDVAFGSKDSGTLHHPHHHHSVPHQPDNLAASNTQSEGSDSVILLKVKDSQTPTPSSTFFQAELWIKELTSVYDSRARERLRQIEEQKALALQLQNQRLQEREHSVHDSVELHLRVPLEKEIPVTVVQETQKKGHKLTDSEDEFPEITEEMEKEIKNVFRNGNQDEVLSEAFRLTITRKDIQTLNHLNWLNDEIINFYMNMLMERSKEKGLPSVHAFNTFFFTKLKTAGYQAVKRWTKKVDVFSVDILLVPIHLGVHWCLAVVDFRKKNITYYDSMGGINNEACRILLQYLKQESIDKKRKEFDTNGWQLFSKKSQEIPQQMNGSDCGMFACKYADCITKDRPINFTQQHMPYFRKRMVWEILHRKLL", "values": [{"measurement": "deacetylase activity of HDAC1 precipitates", "value": "In the presence of SENP1, the deacetylase activity of HDAC1 precipitates had a 70% reduction"}]}]}
